Reference: the supplement of paper PMC5998384

Legend:
[1] = system: HeLa Kyoto; assay: solubility change mitosis vs G1/S (difference of NP-40 vs SDS log2 ratios) (log2 ratio difference); higher = more soluble in mitosis
[2] = system: HeLa Kyoto; assay: solubility in G1/S (NP-40 vs SDS abundance) (log2 ratio); higher = more soluble; conditions: cell cycle stage: G1/S
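For solubility change mitosis vs G1/S (difference of NP-40 vs SDS log2 ratios) in this document: synchronized HeLa Kyoto cells (double thymidine block for G1/S, nocodazole release for mitosis), protein amounts in NP-40 versus SDS lysates quantified by mass spectrometry, three biological replicates.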
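For solubility in G1/S (NP-40 vs SDS abundance) in this document: HeLa Kyoto cells arrested at G1/S by double thymidine block, proteins quantified by TMT10plex mass spectrometry in mild NP-40 versus SDS extracts, three biological replicates.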

MAST2, sequence (chain, as listed by the source): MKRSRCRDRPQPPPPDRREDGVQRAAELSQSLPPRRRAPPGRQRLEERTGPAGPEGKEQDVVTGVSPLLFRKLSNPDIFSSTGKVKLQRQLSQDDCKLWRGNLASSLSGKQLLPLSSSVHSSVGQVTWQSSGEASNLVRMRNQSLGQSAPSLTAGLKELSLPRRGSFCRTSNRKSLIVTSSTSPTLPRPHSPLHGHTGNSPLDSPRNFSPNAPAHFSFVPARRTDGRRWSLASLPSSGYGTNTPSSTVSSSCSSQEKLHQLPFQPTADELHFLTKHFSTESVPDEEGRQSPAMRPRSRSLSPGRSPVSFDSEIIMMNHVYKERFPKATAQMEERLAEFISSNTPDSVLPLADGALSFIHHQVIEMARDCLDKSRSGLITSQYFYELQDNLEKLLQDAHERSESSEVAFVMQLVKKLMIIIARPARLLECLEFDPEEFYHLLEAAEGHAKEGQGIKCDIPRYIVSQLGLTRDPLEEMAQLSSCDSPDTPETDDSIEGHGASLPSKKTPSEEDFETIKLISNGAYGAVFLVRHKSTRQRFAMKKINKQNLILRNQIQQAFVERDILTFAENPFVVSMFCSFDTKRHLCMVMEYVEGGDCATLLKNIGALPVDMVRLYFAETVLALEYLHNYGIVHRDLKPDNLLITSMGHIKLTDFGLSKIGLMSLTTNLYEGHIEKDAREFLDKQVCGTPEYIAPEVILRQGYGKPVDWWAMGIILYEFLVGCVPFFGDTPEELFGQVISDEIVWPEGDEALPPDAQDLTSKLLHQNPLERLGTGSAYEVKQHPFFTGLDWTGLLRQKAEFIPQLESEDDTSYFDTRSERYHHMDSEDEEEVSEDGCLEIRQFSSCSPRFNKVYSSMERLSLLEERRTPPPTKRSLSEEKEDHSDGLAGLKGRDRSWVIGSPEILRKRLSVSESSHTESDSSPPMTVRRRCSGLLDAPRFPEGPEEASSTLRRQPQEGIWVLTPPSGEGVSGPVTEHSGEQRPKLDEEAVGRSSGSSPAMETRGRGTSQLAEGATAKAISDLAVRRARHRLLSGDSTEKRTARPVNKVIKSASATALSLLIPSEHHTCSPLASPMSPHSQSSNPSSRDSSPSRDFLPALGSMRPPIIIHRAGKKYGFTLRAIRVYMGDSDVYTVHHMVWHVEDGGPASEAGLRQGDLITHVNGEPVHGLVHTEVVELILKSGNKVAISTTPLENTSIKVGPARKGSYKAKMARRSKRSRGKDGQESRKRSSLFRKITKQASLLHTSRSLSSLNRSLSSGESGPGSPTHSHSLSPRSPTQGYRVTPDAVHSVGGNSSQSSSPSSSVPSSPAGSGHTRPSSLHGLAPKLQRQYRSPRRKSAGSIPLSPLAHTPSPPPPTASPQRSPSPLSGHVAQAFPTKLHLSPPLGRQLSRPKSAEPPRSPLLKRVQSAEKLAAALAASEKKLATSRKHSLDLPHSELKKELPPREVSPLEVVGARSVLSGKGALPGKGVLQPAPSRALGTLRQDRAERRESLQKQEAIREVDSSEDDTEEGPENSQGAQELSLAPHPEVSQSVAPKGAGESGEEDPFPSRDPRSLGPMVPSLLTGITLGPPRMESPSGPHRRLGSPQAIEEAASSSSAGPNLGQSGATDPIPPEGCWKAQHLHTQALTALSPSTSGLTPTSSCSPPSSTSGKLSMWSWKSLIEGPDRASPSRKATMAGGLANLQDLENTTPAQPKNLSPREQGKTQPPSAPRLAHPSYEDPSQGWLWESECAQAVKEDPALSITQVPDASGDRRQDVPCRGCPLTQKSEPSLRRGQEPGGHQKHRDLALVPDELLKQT

Row | Substance | solubility change mitosis (log2) [1] | solubility in G1/S (log2) [2]
1 | MASKRKSTTPCMVRTSQVVEQDVPEEVDRAKEKGIGTPQPDVAKDSWAAELENSSKENEVIEVKSMGESQSKKLQGGYECKYCPYSTQNLNEFTEHVDMQHPNVILNPLYVCAECNFTTKKYDSLSDHNSKFHPGEANFKLKLIKRNNQTVLEQSIETTNHVVSITTSGPGTGDSDSGISVSKTPIMKPGKPKADAKKVPKKPEEITPENHVEGTARLVTDTAEILSRLGGVELLQDTLGHVMPSVQLPPNINLVPKVPVPLNTTKYNSALDTNATMINSFNKFPYPTQAELSWLTAASKHPEEHIRIWFATQRLKHGISWSPEEVEEARKKMFNGTIQSVPPTITVLPAQLAPTKVTQPILQTALPCQILGQTSLVLTQVTSGSTTVSCSPITLAVAGVTNHGQKRPLVTPQAAPEPKRPHIAQVPEPPPKVANPPLTPASDRKKTKEQIAHLKASFLQSQFPDDAEVYRLIEVTGLARSEIKKWFSDHRYRCQRGIVHITSESLAKDQLAIAASRHGRTYHAYPDFAPQKFKEKTQGQVKILEDSFLKSSFPTQAELDRLRVETKLSRREIDSWFSERRKLRDSMEQAVLDSMGSGKKGQDVGAPNGALSRLDQLSGAQLTSSLPSPSPAIAKSQEQVHLLRSTFARTQWPTPQEYDQLAAKTGLVRTEIVRWFKENRCLLKTGTVKWMEQYQHQPMADDHGYDAVARKATKPMAESPKNGGDVVPQYYKDPKKLCEEDLEKLVTRVKVGSEPAKDCLPAKPSEATSDRSEGSSRDGQGSDENEESSVVDYVEVTVGEEDAISDRSDSWSQAAAEGVSELAESDSDCVPAEAGQA [ZHX2] | -0.0666 | 0.134
2 | MASLGPAAAGEQASGAEAEPGPAGPPPPPSPSSLGPLLPLQREPLYNWQATKASLKERFAFLFNSELLSDVRFVLGKGRGAAAAGGPQRIPAHRFVLAAGSAVFDAMFNGGMATTSAEIELPDVEPAAFLALLRFLYSDEVQIGPETVMTTLYTAKKYAVPALEAHCVEFLTKHLRADNAFMLLTQARLFDEPQLASLCLDTIDKSTMDAISAEGFTDIDIDTLCAVLERDTLSIRESRLFGAVVRWAEAECQRQQLPVTFGNKQKVLGKALSLIRFPLMTIEEFAAGPAQSGILSDREVVNLFLHFTVNPKPRVEYIDRPRCCLRGKECCINRFQQVESRWGYSGTSDRIRFTVNRRISIVGFGLYGSIHGPTDYQVNIQIIEYEKKQTLGQNDTGFSCDGTANTFRVMFKEPIEILPNVCYTACATLKGPDSHYGTKGLKKVVHETPAASKTVFFFFSSPGNNNGTSIEDGQIPEIIFYT [BTBD1] | 0.0289 | -0.225
3 | MAST2 | -0.172 | 0.087
4 | MATAPGPAGIAMGSVGSLLERQDFSPEELRAALAGSRGSRQPDGLLRKGLGQREFLSYLHLPKKDSKSTKNTKRAPRNEPADYATLYYREHSRAGDFSKTSLPERGRFDKCRIRPSVFKPTAGNGKGFLSMQSLASHKGQKLWRSNGSLHTLACHPPLSPGPRASQARAQLLHALSLDEGGPEPEPSLSDSSSGGSFGRSPGTGPSPFSSSLGHLNHLGGSLDRASQGPKEAGPPAVLSCLPEPPPPYEFSCSSAEEMGAVLPETCEELKRGLGDEDGSNPFTQVLEERQRLWLAELKRLYVERLHEVTQKAERSERNLQLQLFMAQQEQRRLRKELRAQQGLAPEPRAPGTLPEADPSARPEEEARWEVCQKTAEISLLKQQLREAQAELAQKLAEIFSLKTQLRGSRAQAQAQDAELVRLREAVRSLQEQAPREEAPGSCETDDCKSRGLLGEAGGSEARDSAEQLRAELLQERLRGQEQALRFEQERRTWQEEKERVLRYQREIQGGYMDMYRRNQALEQELRALREPPTPWSPRLESSKI [N4BP3] | 0.334 | 0.203
5 | MATPGSEPQPFVPALSVATLHPLHHPHHHHHHHQHHGGTGAPGGAGGGGGGSGGFNLPLNRGLERALEEAANSGGLNLSARKLKEFPRTAAPGHDLSDTVQADLSKNRLVEVPMELCHFVSLEILNLYHNCIRVIPEAIVNLQMLTYLNLSRNQLSALPACLCGLPLKVLIASNNKLGSLPEEIGQLKQLMELDVSCNEITALPQQIGQLKSLRELNVRRNYLKVLPQELVDLSLVKFDFSCNKVLVIPICFREMKQLQVLLLENNPLQSPPAQICTKGKVHIFKYLSIQACQIKTADSLYLHTMERPHLHQHVEDGKKDSDSGVGSDNGDKRLSATEPSDEDTVSLNVPMSNIMEEEQIIKEDSCHRLSPVKGEFHQEFQPEPSLLGDSTNSGEERDQFTDRADGLHSEFMNYKARAEDCEELLRIEEDVHWQTEGIISSSKDQDMDIAMIEQLREAVDLLQDPNGLSTDITERSVLNLYPMGSAEALELQDSALNGQIQLETSPVCEVQSDLTLQSNGSQYSPNEIRENSPAVSPTTNSTAPFGLKPRSVFLRPQRNLESIDPQFTIRRKMEQMREEKELVEQLRESIEMRLKVSLHEDLGAALMDGVVLCHLVNHIRPRSVASIHVPSPAVPKLSMAKCRRNVENFLEACRKLGVPEADLCSPCDILQLDFRHIRKTVDTLLALGEKAPPPTSALRSRDLIGFCLVHILFIVLVYITYHWNALSA [LRCH1] | -0.186 | -0.0599
6 | MATVLSRALKLPGKKSPDLGEYDPLTQADSDESEDDLVLNLQKNGGVKNGKSPLGEAPEPDSDAEVAEAAKPHLSEVTTEGYPSEPLGGLEQKAASSLVSYVRTSVFLLTLGISMILVLLCAFLIPCPPRDLHSTWSRHLGSQGGGDLSPLELADVNGDGLRDVLLSFVMSRNGSAVGVSRPAANLVCLSGMNGSTLWSSLLPEEARDITCLELMPGSLAETICLVTGTHKMLSAFNATSGKAIWTLNPNYLSNGTLAAPVVVLPDLDEDGVRDLVVLAIGELQPDLCFLLVSGRTGNPVGRPVKYNIVGVGNLIGPQVYITTNGAVYILFGFGNIQAVALRDIFVQAQNRDSSPPSLQIEEPEWEKRRSINLSELIDVYSDGVELLQMVKAPDSNCSNLLITTRQSLVLLRGQNLTPYWALRLQGLRSQPTPGYFTDDQTLDFLLQIQDGVGMKKMMVVDGDSGSIVWSYRAPCHMKETPATSAVTSDQKSVFLFWAEGLSAASPNSDIILGTEPPSLHHLYLLHPAFPSILLDLANTTGTVTASEVGINDLWKDAFYVTRTTGPSSEGHPAALVVSKLSLRWALMEGQMAQLQESTPKIGRGELRRFLSRIKFVEAPYEI [KIAA1467] | -0.0551 | 0.0831
7 | MATVQEKAAALNLSALHSPAHRPPGFSVAQKPFGATYVWSSIINTLQTQVEVKKRRHRLKRHNDCFVGSEAVDVIFSHLIQNKYFGDVDIPRAKVVRVCQALMDYKVFEAVPTKVFGKDKKPTFEDSSCSLYRFTTIPNQDSQLGKENKLYSPARYADALFKSSDIRSASLEDLWENLSLKPANSPHVNISATLSPQVINEVWQEETIGRLLQLVDLPLLDSLLKQQEAVPKIPQPKRQSTMVNSSNYLDRGILKAYSDSQEDEWLSAAIDCLEYLPDQMVVEISRSFPEQPDRTDLVKELLFDAIGRYYSSREPLLNHLSDVHNGIAELLVNGKTEIALEATQLLLKLLDFQNREEFRRLLYFMAVAANPSEFKLQKESDNRMVVKRIFSKAIVDNKNLSKGKTDLLVLFLMDHQKDVFKIPGTLHKIVSVKLMAIQNGRDPNRDAGYIYCQRIDQRDYSNNTEKTTKDELLNLLKTLDEDSKLSAKEKKKLLGQFYKCHPDIFIEHFGD [DEPDC7] | -0.0977 | 0.222
8 | MAVDVAEYHLSVIKSPPGWEVGVYAAGALALLGIAAVSLWKLWTSGSFPSPSPFPNYDYRYLQQKYGESCAEAREKRVPAWNAQRASTRGPPSRKGSLSIEDTFESISELGPLELMGRELDLAPYGTLRKSQSADSLNSISSVSNTFGQDFTLGQVEVSMEYDTASHTLNVAVMQGKDLLEREEASFESCFMRVSLLPDEQIVGISRIQRNAYSIFFDEKFSIPLDPTALEEKSLRFSVFGIDEDERNVSTGVVELKLSVLDLPLQPFSGWLYLQDQNKAADAVGEILLSLSYLPTAERLTVVVVKAKNLIWTNDKTTADPFVKVYLLQDGRKMSKKKTAVKRDDPNPVFNEAMIFSVPAIVLQDLSLRVTVAESSSDGRGDNVGHVIIGPSASGMGTTHWNQMLATLRRPVSMWHAVRRN [SYT12] | -0.135 | 0.0502
9 | MAVTAQAARRKERVLCLFDVDGTLTPARQKIDPEVAAFLQKLRSRVQIGVVGGSDYCKIAEQLGDGDEVIEKFDYVFAENGTVQYKHGRLLSKQTIQNHLGEELLQDLINFCLSYMALLRLPKKRGTFIEFRNGMLNISPIGRSCTLEERIEFSELDKKEKIREKFVEALKTEFAGKGLRFSRGGMISFDVFPEGWDKRYCLDSLDQDSFDTIHFFGNETSPGGNDFEIFADPRTVGHSVVSPQDTVQRCREIFFPETAHEA [PMM1] | 0.102 | 0.195
